Results as given in publication PMC12397908, “Cryo-EM structures of the MnmE–MnmG complex reveal large conformational changes and provide new insights into the mechanism of tRNA modification” (Nucleic Acids Research, 2025).
Where a chain is given by its changes, count along the chain named.

B1: Escherichia coli MnmE-Δ436–454 (domain or fragment, E. coli, UniProt P25522 1-435, looked up)
chain: MSDNDTIVAQATPPGRGGVGILRISGFKAREVAETVLGKLPKPRYADYLPFKDADGSVLDQGIALWFPGPNSFTGEDVLELQGHGGPVILDLLLKRILTIPGLRIARPGEFSERAFLNDKLDLAQAEAIADLIDASSEQAARSALNSLQGAFSARVNHLVEALTHLRIYVEAAIDFPDEEIDFLSDGKIEAQLNDVIADLDAVRAEARQGSLLREGMKVVIAGRPNAGKSSLLNALAGREAAIVTDIAGTTRDVLREHIHIDGMPLHIIDTAGLREASDEVERIGIERAWQEIEQADRVLFMVDGTTTDAVDPAEIWPEFIARLPAKLPITVVRNKADITGETLGMSEVNGHALIRLSARTGEGVDVLRNHLKQSMGFDTNMEGGFLARRRHLQALEQAAEHLQQGKAQLLGAWAGELLAEELRLAQQNLSEITG
notes: E. coli MnmE without the entire C-terminal swivel helix (deletion of residues 436-454; K454 is the C-terminal residue of MnmE); C-terminal truncation of m1; made from the wild-type open reading frame in pET20b; source: E. coli BL21(DE3), purified (Ni-NTA IMAC, alkaline phosphatase treatment, second Ni-NTA, Superdex200 SEC)
B2: Escherichia coli MnmE-Δ450–454 (domain or fragment, E. coli, UniProt P25522 1-449, looked up)
chain: MSDNDTIVAQATPPGRGGVGILRISGFKAREVAETVLGKLPKPRYADYLPFKDADGSVLDQGIALWFPGPNSFTGEDVLELQGHGGPVILDLLLKRILTIPGLRIARPGEFSERAFLNDKLDLAQAEAIADLIDASSEQAARSALNSLQGAFSARVNHLVEALTHLRIYVEAAIDFPDEEIDFLSDGKIEAQLNDVIADLDAVRAEARQGSLLREGMKVVIAGRPNAGKSSLLNALAGREAAIVTDIAGTTRDVLREHIHIDGMPLHIIDTAGLREASDEVERIGIERAWQEIEQADRVLFMVDGTTTDAVDPAEIWPEFIARLPAKLPITVVRNKADITGETLGMSEVNGHALIRLSARTGEGVDVLRNHLKQSMGFDTNMEGGFLARRRHLQALEQAAEHLQQGKAQLLGAWAGELLAEELRLAQQNLSEITGEFTSDDLLGRIFSS
notes: E. coli MnmE without the C-terminal conserved 450FCIGK454 motif (deletion of residues 450-454; K454 is the C-terminal residue of MnmE); C-terminal truncation of m1; made from the wild-type open reading frame in pET20b; source: E. coli BL21(DE3), purified (Ni-NTA IMAC, alkaline phosphatase treatment, second Ni-NTA, Superdex200 SEC)
B3: Escherichia coli MnmG (enzyme, E. coli)
chain: MFYPDPFDVIIIGGGHAGTEAAMAAARMGQQTLLLTHNIDTLGQMSCNPAIGGIGKGHLVKEVDALGGLMAKAIDQAGIQFRILNASKGPAVRATRAQADRVLYRQAVRTALENQPNLMIFQQAVEDLIVENDRVVGAVTQMGLKFRAKAVVLTVGTFLDGKIHIGLDNYSGGRAGDPPSIPLSRRLRELPLRVGRLKTGTPPRIDARTIDFSVLAQQHGDNPMPVFSFMGNASQHPQQVPCYITHTNEKTHDVIRSNLDRSPMYAGVIEGVGPRYCPSIEDKVMRFADRNQHQIFLEPEGLTSNEIYPNGISTSLPFDVQMQIVRSMQGMENAKIVRPGYAIEYDFFDPRDLKPTLESKFIQGLFFAGQINGTTGYEEAAAQGLLAGLNAARLSADKEGWAPARSQAYLGVLVDDLCTLGTKEPYRMFTSRAEYRLMLREDNADLRLTEIGRELGLVDDERWARFNEKLENIERERQRLKSTWVTPSAEAAAEVNAHLTAPLSREASGEDLLRRPEMTYEKLTTLTPFAPALTDEQAAEQVEIQVKYEGYIARQQDEIEKQLRNENTLLPATLDYRQVSGLSNEVIAKLNDHKPASIGQASRISGVTPAAISILLVWLKKQGMLRRSA
notes: E. coli MnmG in pET14b, preceded by an N-terminal His-tag and TEV cleavage site; domains described over residues 1-629; Homodimer (β2); also called EcMnmG; β2; source: E. coli BL21(DE3), purified (Ni-NTA IMAC, Superdex200 SEC)
B4: Escherichia coli MnmE (wild type) (enzyme, E. coli, UniProt P25522 1-454, looked up)
chain: MSDNDTIVAQATPPGRGGVGILRISGFKAREVAETVLGKLPKPRYADYLPFKDADGSVLDQGIALWFPGPNSFTGEDVLELQGHGGPVILDLLLKRILTIPGLRIARPGEFSERAFLNDKLDLAQAEAIADLIDASSEQAARSALNSLQGAFSARVNHLVEALTHLRIYVEAAIDFPDEEIDFLSDGKIEAQLNDVIADLDAVRAEARQGSLLREGMKVVIAGRPNAGKSSLLNALAGREAAIVTDIAGTTRDVLREHIHIDGMPLHIIDTAGLREASDEVERIGIERAWQEIEQADRVLFMVDGTTTDAVDPAEIWPEFIARLPAKLPITVVRNKADITGETLGMSEVNGHALIRLSARTGEGVDVLRNHLKQSMGFDTNMEGGFLARRRHLQALEQAAEHLQQGKAQLLGAWAGELLAEELRLAQQNLSEITGEFTSDDLLGRIFSSFCIGK
notes: E. coli MnmE, wild-type open reading frame in pET20b, preceded by an N-terminal His-tag and TEV cleavage site; 454 residues (K454 is the C-terminal residue); Homodimer (α2); also called EcMnmE; α2; source: E. coli BL21(DE3), purified (Ni-NTA IMAC, alkaline phosphatase treatment, second Ni-NTA, Superdex200 SEC)
B5: Escherichia coli MnmE K454A (enzyme, E. coli, UniProt P25522 1-454, looked up)
chain: B4 chain with K454A
notes: E. coli MnmE point variant made by QuikChange from the wild-type open reading frame in pET20b; Variant of m1; source: E. coli BL21(DE3), purified (Ni-NTA IMAC, alkaline phosphatase treatment, second Ni-NTA, Superdex200 SEC)

What was measured:
Escherichia coli MnmG [1] = molecular target: B3; test: ITC; wild-type or mutant MnmE 700 μM in the syringe, MnmG 70 μM in the cell; with 1 mM FAD and 1 mM GppNHp; 25°C; 20 mM HEPES pH 7.5, 75 mM NaCl, 75 mM KCl, 5 mM MgCl2, 2 mM β-mercaptoethanol; one set of sites model; settings: both partners purified
[2] = molecular target: the molecule itself; test: cryo-EM structure; MnmE–MnmG complex formed with GppNHp, FAD and K+ (20 mM HEPES pH 7.5, 150 mM KCl, 5 mM MgCl2, 2 mM DTT), purified by SEC; α2β2 and α4β2 classes
Escherichia coli MnmG [3] = molecular target: B3; test: ITC; MnmE 700 μM in the syringe, MnmG 70 μM in the cell; no ligands; 25°C; 20 mM HEPES pH 7.5, 75 mM NaCl, 75 mM KCl, 5 mM MgCl2, 2 mM β-mercaptoethanol; one set of sites model; settings: both partners purified
Escherichia coli MnmG [4] = molecular target: B3; test: ITC; MnmE 700 μM in the syringe, MnmG 70 μM in the cell; with 1 mM FAD; 25°C; 20 mM HEPES pH 7.5, 75 mM NaCl, 75 mM KCl, 5 mM MgCl2, 2 mM β-mercaptoethanol; one set of sites model; settings: both partners purified
Escherichia coli MnmG [5] = molecular target: B3; test: ITC; MnmE 700 μM in the syringe, MnmG 70 μM in the cell; with 1 mM GppNHp; 25°C; 20 mM HEPES pH 7.5, 75 mM NaCl, 75 mM KCl, 5 mM MgCl2, 2 mM β-mercaptoethanol; one set of sites model; settings: both partners purified

Binder: B1
- Kd (Escherichia coli MnmG [1]): 4100 nM
- stoichiometry N (Escherichia coli MnmG [1]): 0.8

Binder: B2
- Kd (Escherichia coli MnmG [1]): 1700 nM
- stoichiometry N (Escherichia coli MnmG [1]): 0.6

Binder: B3
- stoichiometry N [2]: 2

Binder: B4
- Kd (Escherichia coli MnmG [3]): 3400 nM
- stoichiometry N (Escherichia coli MnmG [3]): 0.9
- Kd (Escherichia coli MnmG [1]): 420 nM
- stoichiometry N (Escherichia coli MnmG [1]): 0.6
- Kd (Escherichia coli MnmG [4]): 800 nM
- stoichiometry N (Escherichia coli MnmG [4]): 0.8
- Kd (Escherichia coli MnmG [5]): 770 nM
- stoichiometry N (Escherichia coli MnmG [5]): 1.1
- stoichiometry N [2]: 2

Binder: B5
- Kd (Escherichia coli MnmG [1]): 2200 nM
- stoichiometry N (Escherichia coli MnmG [1]): 0.5
